Measured values from US20260167703A1.

B1: DENV4-5B11 (antibody, V domains shown)
VH: QSVEESGGRLVTPGTPLTLTCTVSGFSLSDSAMSWVRQAPGKGLEWIGYIYAGSGTTYYASWAKGRFTISKTSTTVDLKITSPTTEDTATYFCARATAYVGYGYGDDTFDPWGPGTLVTVSS
VL: AYDMTQTPASVEVAVGGTVTIKCQASQSISSYLSWYQQKPGQRPKLLIYRASTLASGVSSRFKGSGSGTEFTLTISGVQCDDAATYYCQQGYSNSDVDNVFGGGTEVVVK
B2: DENV4-7G4 (antibody, V domains shown)
VH: QSVEESGGRLVTPGTPLTLTCTVSGFSLSSCAMTWVRQAPGKGLEWIGYIYVDSDTTYYASWAKGRFTISTTSTTVDLRITSPTTEDTATYFCARTTAYVGGGYGDDTFDPWGPGTLVTVSS
VL: DVVMTQTPASVEAAVGGTVTINCQASQNINSYLSWYQQKPGQRPKLLIYRAFTLASGVSSRFKGSGSGTQFTLTISGVECADAATYYCQQGYSFSGVDNVFGGGTEVVVK
B3: DENV4-7F2 (antibody, V domains shown)
VH: QSVEESGGRLVTPGTPLTLTCTVSGIDLSYYAMGWVRQAPGEGLECIGFIDTGDSAYYASWAKGRFTISKTSSTTVDLKITSPTPEDTATYFCGRSLSSYYDWDAFDPWGPGTLVTVSS
VL: AYDMTQTPASVEVAVGGTVTINCQASQTIGNLLAWYQQKPGQRPKLLIYRASTLASGVPSRFKGSGSGTQFTLTISGVECADAATYYCQQGASANDIDNSFGGGTAVVVK
B4: DENV4-10A11 (antibody, V domains shown)
VH: QSVEESGGRLVTPGTPLTLTCTVSGINLSFYAMGWVRQAPGKGLECVGFIDTDNSAYYASWAKGRFTISKTSTTVDLKITSPTTEDTATYFCARSLSSFYDWDAFDPWGPGTLVTVSS
VL: AYDMTQTPASVEVAVGGTVTIKCLASQSISNLLAWYQQKPGQRPKLLIYRASTLASGVPSRFKGSGSGTQFTLTISGVECADAATYYCQQGASNSDIDNAFGGGTEVVVK
B5: DENV4-9G8 (antibody, V domains shown)
VH: QSLEESGGGLVKPGASLTLTCTASGFSFSYRYWMSWVRQAPGKRPEWIACIDTGNGDTYYASRAKGRFTIMKTSSTTVTLQMTSLTVADTATYFCARSDVTLTGYGYGNLWGPGTLVTVSS
VL: DSVMTQTPASVSEPVGGTVTINCQASHNIYNSLAWYQQKPGQPPKLLIYRASTLESGVPSRVKGSGYGTEYTLTISDLECADAATYYCQQYYGGDDDGFGFGGGTEVVVK
B6: DENV2-3H11 (antibody, V domains shown)
VH: QSVEESGGRLVTPGTPLTLTCTVSGFSLINYDMSWIRQAPGKGLEWIGMVSGGGHTNYASWANGRFTISKTSSTTMDLKITSPTTEDTASYFCGRWDIWGPGTLVTVSL
VL: AVVVTQTASPVSAAVGGTVTISCQSSQSVYDDNWLAWYQQKPGQPPKQLIYRASRLASGVPSRFSGTGSGTQFTLTISGVQCDDAATYYCLGGYVDDGDTTFGGGTEVVVK
B7: DENV2-8D8 (antibody, V domains shown)
VH: QSLEESGGRLVKPDETLTLTCTVSGIDLSSTIITWVRQAPGKGLEYIGIIGSSGSIISANWAKGRFTISRTSTTVDLKMTSLTTEDTATYFCARIAWSTGRNDIWGPGTLVTVSS
VL: AAVLTQTPPSVSAAVGGTVTISCQSSQSVYNNNALSWYQQKPGQPPKLLIYLASNLASGVPSRFSGSGSGTQFTLTISGVQCDDAATYHCLGVDDDDVDNTFGGGTEVVVK
B8: DENV2-5F4 (antibody, V domains shown)
VH: QSVEESGGRLVKPDETLTLTCTVSGIDLSNTVISWVRQAPGKGLEYIGMITPSGSAYSATWAKGRVTISRTSTTVDLKIASPTTEDTATYFCARIAWSTGRNDIWGPGTLVTVSS
VL: AAVLTQTPPSVSAAVGGTVTIKCQSSQSVYNNNALSWYQQKPGQPPKLLIYQASKLSSGVSSRFSGSGSGTHFTLTISGVQCDDAATYYCLGIYDDDVDNTFGGGTEVVVG
B9: DENV4-7D5 (antibody, V domains shown)
VH: QSVEESGGRLVTPGTPLTLTCTVSGIDLSSWEMGWVRQAPGKGLEWIGIIFPSGTIYYANWAKGRFAISKASTTVDLKITSPTTEDTATYFCGRHGGSLYLNIWGPGTLVTVSL
VL: AQVLTQTPSPVSAAVGGTVTINCQASQSVYVNRNLAWYQQKPGQPPKVLIYEASKLASGVPSRFKGSGSGTQFTLTISGVQCDDAATYYCQGEFGCSSADCIAFGGGTEVVVK
B10: DENV4-8C7 (antibody, V domains shown)
VH: QSVEESGGRLVTPGTPLTLTCTVSGIDLSSYEMGWVRQAPGKGLEWIGIIFPSGTIYYANWAKGRFTISKTSTTVDLKITSPTTEDTATYFCGRHGGSLYLNIWGPGTLVTVSL
VL: AQVLTQTPSPVSAAVGGTVTINCQASQSVYVNRNLAWYQQKPGQPPKVLIYEASKLASGVPSRFKGSGSGTQFTLTISGVQCDDAATYYCQGEFGCSSADCIAFGGGTEVVVK

What was measured:
[1] = target: DENV-4 E protein Domain III (Dengue virus serotype 4, strain Indonesia/1036/1976); assay: BLI, mAb on AR2G biosensor, 20 ug/mL Domain III, 1200 sec
[2] = target: DENV-2 VLP (Dengue virus serotype 2, strain Thailand/16681/84)
[3] = target: DENV-2 VLP (Dengue virus serotype 2, strain Thailand/16681/84); assay: Luminex, VLP-coupled beads
[4] = target: DENV-2 E protein Domain III (Dengue virus serotype 2, strain Thailand/16681/1984); assay: BLI, mAb on AR2G biosensor, 20 ug/mL Domain III, 1200 sec

Binder	Response (nm) [1]	Response (nm) [2]	koff [2]	EC50 [3]	Response (nm) [4]
B1	0.02 nm	–	–	–	–
B2	-0.001 nm	–	–	–	–
B3	-0.005 nm	–	–	–	–
B4	0.012 nm	–	–	–	–
B5	0.264 nm	–	–	–	–
B6	–	2.02 nm	< 2e-05 s⁻¹	0.0354 µg/mL	-0.00452 nm
B7	–	0.756 nm	< 2e-05 s⁻¹	0.011 µg/mL	0.0246 nm
B8	–	1.5 nm	< 2e-05 s⁻¹	0.0095 µg/mL	0.0206 nm
B9	-0.007 nm	–	–	–	–
B10	-0.014 nm	–	–	–	–
